Laboratory results reported in patent US20240239907A1 (EDELWEISS IMMUNE, published 2024).
Numbering of substitutions follows the chain as printed.

B1: COXs-1B10 (antibody, V domains shown)
VH: QVTLKESGPGILKASQTLSLTCSFSGFSLSTSGMGIGWIRQPSGKGPEWLAHIWWDDEKYYRPSLKSRLTVSKDTSRNQVFLNITSVDTTDSASYYCVQRTPGRFAYWGQGTLVTVST
VL: DIVMTQSPSSLAVSIGQKVIMSCKSSQSLLSSRTQKNYLAWYQQKPGQSPKLLVYFASIRESGVPDRFTGSGSGTDFTLTISTVQAEDLAVYYCQQYFLTPYTFGGGTKLEIK
notes: Mouse antibody
B2: COXs-11H4 (antibody, V domains shown)
VH: EVQLVESGGGLVQPKGSLKLSCAASGFTFNTYAMNWVRQVPGKGLEWIARMRSESKNFATYYADSVKDRFTISRDDSESILYLQMNNLKTEDTGMYYCVRQGNFDVWGTGTTVTVSS
VL: DVVMTQAPLSLSVSLGDQASISCRSGQNIVHTDGNTYLYWSLQKPGQSPNLLIYKVSNRFSGVPDRFSGSGSGTDFTLKINRVEAEDMGVYYCFQLTHVPYTFGGGTKLEIK
notes: Mouse-derived; tested at the screening stage
B3: COXs-7A7 (antibody, V domains shown)
VH: EVQLMESGGGLVKPGGSRKLSCAASGFTFSDYGMHWVRQAPEKGLEWIAYINSGSSTIHYADSVKGRFTISRDNAKNTLFLQMTSLRSEDTAMYYCVRPGFAYWGQGTLITVSA
VL: DIVMTQTPLTLSTTVGQSAFISCRSSQSLLHRNGNTYLNWFLQRPGQSPQLLVYEIFERKSGVPDRFSGSGSGTDFTLKISRVEAEDLGVYYCMQATYEPLTFGAGTKLELK
notes: as for B2
B4: COXs-7E6 (antibody, V domains shown)
VH: B3 VH with Y32H, Q82H
VL: B3 VL with T13I
notes: as for B2
B5: COXs-2D2 (antibody, V domains shown)
VH: EVQLVESGGGLVQPKGSLKLSCTASGFSFDTYAMNWVRQAPGKGLEWIARIRSKSKNYATYYADSVKDRFTISRDDSANILYLQMNNLKTEDTAIYYCLRQGSFDYWGQGTTLTVSS
VL: DVVLTQTPLSLPVSLGDQASISCRSGQRIVHTDGNTYLYWYLQKPGQSPKLLIYRVSNRFSGVPDRFSGSGSGTDFTLKISRVEAEDMGIYYCFQGTHFPYTFGGGTKLEIK
notes: Mouse-derived
B6: COXs-11E5 (antibody, V domains shown)
VH: B5 VH with I48V, I72V
VL: B5 VL with L4M, G26S, T77I
notes: as for B2
B7: COXs-4H5 (antibody, V domains shown)
VH: EIQLVQSGPELKKPGKTVKISCKASGYTFTTYGMSWVKQAPGKALKWMGWINTYSGVPTYADDFKGRFAFSLETSASTAYLQINNLKNEDTATYFCAIRRLSITLHGMDYWGQGTSVTVS
VL: B5 VL with L4M, T7S, S22Y, G26S, T32S, K44R
notes: as for B2
B8: COXs-2D4 (antibody, V domains shown)
VH: B5 VH with Q3H, Y58S
VL: B5 VL with L4M, G26S, S81T
notes: as for B2
B9: COXs-9D6 (antibody, V domains shown)
VH: B5 VH with Q3H, I48V, K67T, R100S
VL: B5 VL with L4M, G26S, T77I
notes: as for B2
B10: COXs-12E7 (antibody, V domains shown)
VH: B5 VH with Q3H, T23K, I48V, N57S
VL: B5 VL with L4M, S22Y, G26S, T32S, K44R
notes: as for B2
B11: Beacon1-A4 (antibody, V domains shown)
VH: EVQLQQSGPVLVKPGASVKMSCKTSGYTFTDYYMNWVKQSHGKSLEWIGVIKPYSGRTSYDQKFKDKATLTVDKSSSTAYMELNSLTSEDSAVYYCAREGVSITTVGSSLYYYPMDYWGQGTSVTVSS
VL: DIVLTQSPATLSVTPGASVSLSCRASQSISNNLHWYQQKSHESLRLLIKYASQSVSGIPSRFSGSGSGTDFTLTINSVETEDFGMYFCQQSNSWPRTFGGGTKLEIK
notes: as for B2
B12: CNGs-1B7-E4 (antibody, V domains shown)
VH: EVQLVESGGGLVQPRGSLKLSCAASGFTFNTYAMNWVRQAPGNGLEWVARIRSKSYNYATYHAGSVKDRFTISRDDSQNMLYLQMNNLKTEDTAMYYCMRGQTYWGQGTLVTVSA
VL: DVVLTQTPLSLPVNIGDQASISCKSTKSLLNSDGFTYLDWHLQKPGQSPQLLIYLVSNRFSGVPDRFSGSGSGTDFTLKISRVEAEDLGVYYCFQSNYLPFTFGSGTKLEMK
notes: as for B2
B13: CNGs-3H2-B7 (antibody, V domains shown)
VH: EVQLVESGGGLVQPKGSLKLSCAASGVSFKTYAMTWVRQAPGKGLEWVARIRSKRYNYATYYADSVKDRFTISRDDSESMLYLQMNNLKTEDTAMYYCMRQGAYWGQGTLVTVSA
VL: B12 VL with H41Y, Q50H, M111I
notes: as for B2
B14: Beacon2-A3 (antibody, V domains shown)
VH: EVQIVESGGGLVQPKGSLKLSCAASGFSFNTYAMNWVRQAPGKGLEWVARIRTKRNNYVKFYADSVKDRFTISRDDSESMLYLQMNILKTEDTAMYYCVRQGAYWGQGTLVTVSA
VL: B12 VL with H41Y, Y92F, F101Y, S105G, M111I
notes: as for B2
B15: Beacon2-E5 (antibody, V domains shown)
VH: B14 VH with I4L, D68G, E78Q, I87N, T90A, M95I, Y104F
VL: B12 VL with H41Y, K79R, F101Y, S105G, M111I
notes: as for B2
B16: CNE-7B1 (antibody, V domains shown)
VH: QVQLQQSGPELVKPGTSVRISCKTSGYTFTSSYVHWVKRRPGQGLEWIGWIYPGNDYTKYNEKFKGKATLTADKSSSTAYMRLSSLASEDSAVYFCTRSYYGFDYWGQGTTLTVSS
VL: DVLMTQTPLSLPVSLGDQASISCRSGQSIVRSRGNTYLEWYLQKPGQSPKLLIYKVSNRFSGVPDRFSGSGSGTDFTLKISRVEAEDLGVYYCFQGSHVPYTFGGGTKLEIK
notes: as for B2
B17: CNGs-1E1-G5 (antibody, V domains shown)
VH: QVQLQQSGPELVKPGASVRISCKASGYTFTTSYIHWVKQRPGQGLEWIGWISPGNVNTRSNEKFKGKATLTADKSSNTAYMQLSSLTSEDSAVYFCAKSYFGFDFWGQGTTLTVSS
VL: B16 VL with G26S, R31H, R33N, L42V, F60S
notes: as for B2
B18: Beacon1-G12 (antibody, V domains shown)
VH: B7 VH
VL: DIQMTQSPASLSVSVGETVTITCRASENIYSNLAWYQQKQGKSPQLLVYGATNLADGVPSRFSGSGSGTQYSLKINSLQSEDFGSYYCQHFWGTPWTFGGGTKLEIK
notes: Mouse-derived
B19: CNGs-1B7 (antibody, V domains shown)
VH: EVKLEESGGGLVRPGGSMKLSCVASGFTFSDYWMNWVRQSPEKGLEWLAQIRLNSGNYAARYAESVKGRFTISRDDSKNSVYLQMINLRAEDTGIYFCTSNAWLANWGQGTLVTVSA
VL: DIVMTQTAPSVPVTPGESVSISCRSSKSLLHSNGNTYLYWFLQRPGQSPQRLIYSVSNLASGVPDRFSGRGSGTDFTLTISRVEAEDVGVYYCMQSLEYPYTFGGGTKLEIK
notes: Mouse-derived
B20: Genovac2-H2 (antibody, V domains shown)
VH: B19 VH
VL: B18 VL with S31N, G50A
notes: as for B2
B21: Beacon2-A7 (antibody, V domains shown)
VH: EMKLEESGGGLVQPGGSMKLSCVASGFTFSNYWMSWVRQSPEKGLQWVGQIRLKSDNYATHYAESVKGKFTISRDDSKSSVYLQMNNLRAEDTGIYYCAPYSNWGYWGQGTTLTVSS
VL: DIVMTQAAPSIPVTPGGSVSISCRSTKSLLHTNGNTYLYWFLQRPGQSPQVLIYRMSNLASGVPDRFSGSGSGTAFTLRISRVEAEDVGVYYCMQYLEYPYTFGSGTKLEIK
notes: as for B2
B22: Genovac1-D12 (antibody, V domains shown)
VH: EVKLEESGGGLVQPGGSMKLSCVASGFTFSNYWMNWVRQSPEKGLKWVAQIRLKSDNYGTHYAESVKGRFTISRDDSKGSVYLQMNNLRAEDTGIYYCTSNAWFAYWGQGTLVTVSA
VL: DIVMTQAAPSVPVTPGESVSISCRSSKSLLHSNGNTYLFWFLQRPGQSPQRLISYMSNLASGVPDRFSGRGSGTDFTLRISRVEAEDVGVYYCLLSLEYPYTFGSGTRLEIT
notes: as for B2
B23: Beacon2-D5 (antibody, V domains shown)
VH: EVQLVESGGGLVQPKGSLKLSCAASGFTFNTYAMNWVRQAPGKGLEWVARIRSKSNNYATYYADSVKDRFTISRDDSQSMLYLQMNNLKTEDTAMYYCLSHGAFAYWGQGTLVTVSA
VL: not shown
notes: as for B2
B24: CNF-2F8 (antibody, V domains shown)
VH: B23 VH with T28S, N30Q, S55R, T71S, Q78E, S79N
VL: not shown
notes: as for B2
B25: CNGs-1C1 (antibody, V domains shown)
VH: B23 VH with Q13R, T28S, T31A, Q78E
VL: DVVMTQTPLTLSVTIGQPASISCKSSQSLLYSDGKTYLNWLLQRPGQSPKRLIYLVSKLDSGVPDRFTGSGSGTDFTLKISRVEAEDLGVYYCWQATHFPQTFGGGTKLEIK
notes: as for B2
B26: CNE-6H7-G7 (antibody, V domains shown)
VH: B23 VH with T28S, A59G, Q78E, Q84K, A103S, F104S
VL: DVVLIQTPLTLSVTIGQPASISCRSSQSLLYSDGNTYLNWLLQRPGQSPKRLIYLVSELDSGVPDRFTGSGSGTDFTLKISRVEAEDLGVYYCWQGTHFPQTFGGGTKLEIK
notes: as for B2
B27: CNE-6E10 (antibody, V domains shown)
VH: B23 VH with T28S, S55T, N57S, A59E, Q78E, M95V
VL: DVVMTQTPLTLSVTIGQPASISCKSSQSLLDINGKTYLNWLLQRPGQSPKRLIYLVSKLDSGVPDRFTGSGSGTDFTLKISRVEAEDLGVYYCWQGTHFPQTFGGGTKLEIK
notes: Mouse-derived

The binders below were run against T1, human CXCR6 (human, UniProt O00574 1-342) (assay: screening on cells overexpressing CXCR6, one single concentration, yes/no).
T1 construct: also called hu-CXCR6; wild type human CXCR6
T1 sequence (O00574 whole entry): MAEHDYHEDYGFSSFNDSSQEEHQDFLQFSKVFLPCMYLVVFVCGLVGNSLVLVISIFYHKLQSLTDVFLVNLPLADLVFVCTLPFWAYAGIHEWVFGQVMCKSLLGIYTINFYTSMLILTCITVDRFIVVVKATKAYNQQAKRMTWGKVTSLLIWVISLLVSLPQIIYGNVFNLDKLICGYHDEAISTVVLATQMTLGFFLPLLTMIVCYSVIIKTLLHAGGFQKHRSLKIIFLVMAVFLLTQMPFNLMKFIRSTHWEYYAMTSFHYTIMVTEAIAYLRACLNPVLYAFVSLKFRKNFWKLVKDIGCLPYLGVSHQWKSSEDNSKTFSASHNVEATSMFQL

Binder	binding result
B1	binds
B2	binds
B3	binds
B4	binds
B5	binds
B6	binds
B7	binds
B8	binds
B9	binds
B10	binds
B11	binds
B12	binds
B13	binds
B14	binds
B15	binds
B16	binds
B17	binds
B18	binds
B19	binds
B20	binds
B21	binds
B22	binds
B23	binds
B24	binds
B25	binds
B26	binds
B27	binds
